Experimental data reported in US20190023766A1 (published 2019).

B1: IL-15N72D:IL-15RαSu/Fc complex (Alt-803), co-expressed and purified (Fc fusion)
chain 1: PEAAGG
chain 2: PELLGG
B2: in vitro assembled IL-15N72D:IL-15RαSu/Fc complex (IL-15N72D:IL-15RαSu/Fc IVA) (Fc fusion)
chain 1: PEAAGG
chain 2: PELLGG

What was measured:
[1] = target: IL-15Rβγc receptors on 32Dβ cells (hIL-15Rβ and murine γC chains) (human; mouse) (UniProt P14784); assay: cell-based or functional assay
[2] = target: OVA (aa257-264) peptide/H-2Kb complex, soluble (HRP tetramer or biotinylated complex on a streptavidin chip) (mouse) (UniProt P01901); assay: SPR (BIAcore 2000), biotinylated pMHCI on streptavidin chip, apparent KD
Sequence of OVA (aa257-264) peptide/H-2Kb complex, soluble (HRP tetramer or biotinylated complex on a streptavidin chip) (mouse) (P01901 22-305, one chain of several): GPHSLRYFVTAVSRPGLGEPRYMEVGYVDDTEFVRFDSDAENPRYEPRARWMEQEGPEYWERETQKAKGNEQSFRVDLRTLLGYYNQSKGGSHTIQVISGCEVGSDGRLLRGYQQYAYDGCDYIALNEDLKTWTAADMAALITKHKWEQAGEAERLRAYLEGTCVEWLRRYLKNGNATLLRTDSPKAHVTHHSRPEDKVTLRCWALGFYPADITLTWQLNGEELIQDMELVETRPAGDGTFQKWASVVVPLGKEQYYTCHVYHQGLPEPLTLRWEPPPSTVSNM

[3] = target: OVA (aa257-264) peptide/H-2Kb complex, soluble (HRP tetramer or biotinylated complex on a streptavidin chip) (mouse) (UniProt P01901); assay: SPR (BIAcore 2000), biotinylated pMHCI on streptavidin chip
[4] = target: T1, IL-15Rβγc receptors on 32Dβ cells (hIL-15Rβ and murine γC chains) (human; mouse, UniProt P14784 27-551; P34902 23-369); assay: cell-based or functional assay
T1 sequence (looked up) 1: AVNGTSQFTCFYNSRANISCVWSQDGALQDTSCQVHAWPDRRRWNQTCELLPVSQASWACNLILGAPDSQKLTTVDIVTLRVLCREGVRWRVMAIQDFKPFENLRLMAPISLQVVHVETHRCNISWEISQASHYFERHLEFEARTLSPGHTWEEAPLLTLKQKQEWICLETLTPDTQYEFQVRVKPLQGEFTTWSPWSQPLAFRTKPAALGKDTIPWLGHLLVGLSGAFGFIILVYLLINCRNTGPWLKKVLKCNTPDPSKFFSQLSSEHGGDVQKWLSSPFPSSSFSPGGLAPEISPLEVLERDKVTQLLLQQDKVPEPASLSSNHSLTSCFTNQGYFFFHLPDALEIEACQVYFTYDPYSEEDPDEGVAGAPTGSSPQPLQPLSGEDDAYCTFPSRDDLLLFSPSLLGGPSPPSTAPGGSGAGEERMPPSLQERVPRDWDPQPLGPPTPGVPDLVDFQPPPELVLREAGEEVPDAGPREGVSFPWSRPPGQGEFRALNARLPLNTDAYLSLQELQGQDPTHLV
T1 sequence (looked up) 2: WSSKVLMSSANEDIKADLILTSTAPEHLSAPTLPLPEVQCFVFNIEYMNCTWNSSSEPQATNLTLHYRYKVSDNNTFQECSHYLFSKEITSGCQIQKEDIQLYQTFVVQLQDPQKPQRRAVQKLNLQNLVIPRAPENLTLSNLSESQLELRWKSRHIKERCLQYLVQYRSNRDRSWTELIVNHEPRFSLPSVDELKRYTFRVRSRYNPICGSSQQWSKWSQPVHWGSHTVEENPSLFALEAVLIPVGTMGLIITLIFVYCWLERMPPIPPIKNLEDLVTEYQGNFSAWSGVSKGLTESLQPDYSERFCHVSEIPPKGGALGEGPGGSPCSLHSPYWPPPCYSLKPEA

Row | Molecule | EC50, 32Dβ cell proliferation [1] [nM] | EC50, 32Dβ cell proliferation [4] [nM] | further results
1 | c264scTCR dimer (c264scTCR/hIL-15:c264scTCR/hIL-15RαSu/birA complex) (from UniProt P40933 49-162) | 0.3 | – | –
2 | OT1scTCR dimer (OT1scTCR/hIL-15:OT1scTCR/hIL-15RαSu/birA complex) (from UniProt P40933 49-162) | – | – | Kd [2]: 30000 nM
3 | OT1scTCR/scCD8 heterodimer (OT1scTCR/hIL-15:scCD8/hIL-15RαSu/birA complex) (from UniProt P40933 49-162; P01731 28-196; P10300 22-175) | – | – | Kd [3]: 2600 nM
4 | c264scTCR/hIL-15 fusion protein (from UniProt P40933 49-162) | 0.3 | – | –
5 | B1 | – | 0.0156 | –
6 | B2 | – | 0.0158 | –
